# Experimental data taken from the DeepSol protein solubility set.
# Assay: soluble on expression in E. coli; label from the status in PepcDB or PDB records
row,Sequence,soluble on expression in E. coli
1,MTSMDNSARGQRHNEFADSAARIEAANDMSISAGRDVINKGSVLESGRDMSIQAGRDVTIAPTEVTNSLFSDSKHNSSDITQLGSTASAGRDLTVQAGRDISVIASQIDAKRDIAMAATENLTISSAADEEHSLSKSKKLTRQEDHVSQIAADLDAGGSVALQAGQNLAVISSRITAGKEAYLVAGDQLDILAAQDSDYSLYDKKKKGSFGAKKTKRDEITDVKNIGSEITTGGDLLLASGGDQKYQVAKLESGKDLTIDSGGAVTFEGVKDLHQESHEKSKSDLAWNSSKGKGNTDETLRQSELVAKGELAIRAVEGLKIDIKQVDQQSVSQTIDAMVKADPQLAWLKEAELRGDVDWRQVKEVHDSLIGTAVNAAVVAGLTSATSQAVISTVNNKGNLGAALKDVTSAESMKGYLVSGLAAGFAAGILDPAYGVSPENTAKATHGFDLGSVDGFTNYAGYTLAQGGFSAAANTAINGGSLTDNLAQAAISSAADAMSAGIYNKLGTKLEFSGLPSKLAAHALVGGLIAELAGGDFRSGALAAGANEAFVNLVGDKIFVGESHDKLLAMTSQLVGLTVAAAAGGTDKDQAVAGWVAQQATTFNYLEHSEKEAFIKEMLGCDTDKCAREKWEQGKFDEDSQANVQYANDIAGSQRARETRDRVLDSLGSILDMNCPTSACEGYKQLLMERSLGTLKNLNQVIKDWASVDQRLGLMAGAAVGGQANYKCGSTASRSAGVDLEHHHHHH,soluble
2,MKTLNLLAPVSQLLKPLRRQSSSRVNALLINVPRVQLSKGKNKYLLMMIHMHGLTRFGRTIVRGSASKDHEEIFEEIQKEMDKIGICAKCLGGGFISNKEDKKVMKIYGCCKTFGEAPHGRTKDILLSWTKFQHYNIILPKKNLNAYQLEHHHHHH,not soluble
3,MGSSHHHHHHSSGLVPRGSEVVIVSATRTPIGSFLGSLSLLPATKLGSIAIQGAIEKAGIPKEEVKEAYMGNVLQGGEGQAPTRQAVLGAGLPISTPCTTINKVCASGMKAIMMASQSLMCGHQDVMVAGGMESMSNVPYVMNRGSTPYGGVKLEDLIVKDGLTDVYNKIHMGSCAENTAKKLNIARNEQDAYAINSYTRSKAAWEAGKFGNEVIPVTVTVKGQPDVVVKEDEEYKRVDFSKVPKLKTVFQKENGTVTAANASTLNDGAAALVLMTADAAKRLNVTPLARIVAFADAAVEPIDFPIAPVYAASMVLKDVGLKKEDIAMWEVNEAFSLVVLANIKMLEIDPQKVNINGGAVSLGHPIGMSGARIVGHLTHALKQGEYGLASICNGGGGASAMLIQKL,soluble
4,TVQTQDKVTAMDKDPKVTVDVTGYQWNWKFGYAKVAGELSPTGSDYVGTDEKRQEAAEKTKFDQGGDNPNPINGRSKTDTSYLHFNKIETLGTSEEIPV,not soluble
5,AKDNYGKLPLIQSRDSDRTGQKRVKFVDLDEAKDSDKEVLFRARVHNTRQQGATLAFLTLRQQASLIQGLVKANKEGTISKNMVKWAGSLNLESIVLVRGIVKKVDEPIKSATVQNLEIHITKIYTISETPEALPILLEDASRSEAEAEAAGLPVVNLDTRLDYRVIDLRTVTNQAIFRIQAGVCELFREYLATKKFTEVHTPKLLGAPSEGGSSVFEVTYFKGKAYLAQSPQFNKQQLIVADFERVYEIGPVFRAENSNTHRHMTEFTGLDMEMAFEEHYHEVLDTLSELFVFIFSELPKRFAHEIELVRKQYPVEEFKLPKDGKMVRLTYKEGIEMLRAAGKEIGDFEDLSTENEKFLGKLVRDKYDTDFYILDKFPLEIRPFYTMPDPANPKYSNSYDFFMRGEEILSGAQRIHDHALLQERMKAHGLSPEDPGLKDYCDGFSYGCPPHAGGGIGLERVVMFYLDLKNIRRASLFPRDPKRLRP,soluble
6,MVTEFAKEMIKNADSCGAQDIYVIPRQDNYELYMRVGQERRLIDVYRPDFMASLIGHFKFVAGMMVGEKRRSQLGSCDYDCGDGHLVSLRLSTVGDYRGLESLVIRILH,not soluble
7,GMENELEDKILAILEQHQVGVLTSVQGDFPHARYMTFLHDGLTLYTPSGKELPKTEEVRRNPHVCVLIGYDSPGSAFLEINGLASLEEDESIKERIWENISKDWFQGEDSPSFVVIKIVPEQIRILNS,soluble
8,MSYYHHHHHHLESTSLYKKAGSENLYFQGARDQGADEAREYEPGQPGMYELEFPAPQLSSSDGRGPVLVHALEGFSDAGHAIRLAAAHLKAALDTELVASFAIDELLDYRSRRPLMTFKTDHFTHSDDPELSLYALRDSIGTPFLLLAGLEPDLKWERFITAVRLLAERLGVRQTIGLGTVPMAVPHTRPITMTAHSNNRELISDFQPSISEIQVPGSASNLLEYRMAQHGHEVVGFTVHVPHYLTQTDYPAAAQALLEQVAKTGSLQLPLAVLAEAAAEVQAKIDEQVQASAEVAQVVAALERQYDAFIDAQENRSLLTRDEDLPSGDELGAEFERFLAQQAEKKSDDDP,soluble
9,MGSDKIHHHHHHMALRIAFLTVGDPQRRTGGYLYHREVFRCWQARNQPVEEIVLGPADVAGQIAASNRAGQLVEAGRYDVIVVDALARAVVAPWLAHWQRLCPLVTLVHELPTVAGASDPREYEWEQMLLRADALVAVSDDGANTLIARGVEAARIHIASGGCDRLLSRMPVGKAREELVIAVAQWIPRKNLAHLVRVWGQVAEHPWRLELIGESDADPVYAGEVWQAIQHCPANVIVRGVLADDELAERYARASLFALPSRFEGYGLVFAEALACGLPVIAGAVGPVPALVGAGGMLVHPDDEQALSVALRTVMRDAHLRQHLSTAARQRASTLPRWQDTAQHLLCAIEWAYAQRHRVST,not soluble
10,SADNGGYVPAVVIGTGYGAAVSALRLGEAGVQTLMLEMGQLWNQPGPDGNIFCGMLNPDKRSSWFKNRTEAPLGSFLWLDVVNRNIDPYAGVLDRVNYDQMSVYVGRGVGGGSLVNGGMAVEPKRSYFEEILPRVDSSEMYDRYFPRANSMLRVNHIDTKWFEDTEWYKFARVSREQAGKAGLGTVFVPNVYDFGYMQREAAGEVPKSALATEVIYGNNHGKQSLDKTYLAAALGTGKVTIQTLHQVKTIRQTKDGGYALTVEQKDTDGKLLATKEISCRYLFLGAGSLGSTELLVRARDTGTLPNLNSEVGAGWGPNGNIMTARANHMWNPTGAHQSSIPALGIDAWDNSDSSVFAQIAPMPAGLETWVSLYLAITKNPQRGTFVYDAATDRAKLNWTRDQNAPAVNAAKALFDRINKANGTIYRYDLFGTQLKAFADDFCYQPLGGCVLGKATDDYGRVAGYKNLYVTDGSLIPGSVGVNPFVTITALAERNVERIIKQDVTAS,soluble
11,MSLQKNGYRIQFTSSRIRDLMYRTTFDPKKMDGDIILNLSLIDKKDLDDVLGIFKMVISSGLSVTPYVKVISEGESIGDMTIEKGKVGIGTVCSITIDGVLLKAGIPVNPKLGGVVQIRNGIPVRFTDVLTYVSTTVDPLEILMSQGITSVSEMLRTGSGKVLANLREAPMVARDEIESNLSDLLDAGFSGILEVGEPNTRVLDVPIERDHLGIVVIGGTNPMAVVQEYGIPIDTSAMSRLISFKEMSRIEDLVEGHHHHHH,soluble
12,SADHDLFRETVYAESLDEALERYSVDTVGDSELATLLPHIEKTFGFPTWAQINEALDTYPDREFVNTVTELLSTANPESLVAAVELMVASARSTTLREELDHEVVLGEYIRSRPNFAEGVRAVLVDKDRNADFTPATTGEVDVTPMRKLLKN,not soluble
13,GMLKSKIKEEYVQMDQVDWKPFPAAFSTGGIRWKLLHVSPEMGSWTAIFDCPAGSSFAAHVHVGPGEYFLTKGKMDVRGGKAAGGDTAIAPGYGYESANARHDKTEFPVASEFYMSFLGPLTFVKPDGSPIAVIGWEDAQGAWAA,soluble
14,MWLPTPLGPLWLEVSPLGVRRLEPALYPRGPEAEGALALRVREAVQAYFAGERPDFLDLPLDYTGLSPARLRLYERVRLVPYGRTVSYGALGRELGLSPRAVGAALRACPFFLLVPAHRVIHADGRLGGFQGQEGLKLWLLRFEGAL,soluble
15,MSHGSPAPSASVSSDGEEPEIDVMPSSDEESEPIYIPKEKEPVVIRGVGNITVFGMNSRFNTEYPPELTGYIAPEELSATLSRVNSVLKRHVQTSSRWLLCGLAFCCCSIGCSMWPVLCLNRRTVLALEKCLDHENVSLYHKLGLHWSLARRPTEPSDRLTEYVLELKTLPKPALNLPD,not soluble
16,MISVTLSKIADVLGAEHRGADLTLDTVITDTRKVTPGCLFVALKGERFDAHDFADKAKANGAGALLVSRPLDIDLPQVIVKDTRQAFGQLAAWVRMQVPARVVALTGSSGKTSVKEMTAAILSQCGNTLYTAGNFNNDIGVPITLLRLNHDYDYAVIELGANHQGEIAWTVSLTRPEAALVNNLAAAHLEGFGSLAGVAKAKGEIYTGLPENGIAIMNADNNDWLNWQSIIGDRLVWRFSPNAANSDFTAANIHVTSHGTEFTLQTPMGSIDVLLPLPGRHNIANALAAAALSMAVGATLTAIKAGLAALKAVPGRLFPIQLSENQLVLDDAYNANVGSMTAAVQVLSEMPGYRVLVVGDMAELGAESEACHLQVGEAAKAAGIDRVLSTGKLSQAISHASGVGEHFADKAALIARLHALLQEQPMMTILVKGSRSAAMEDVVHALQEKGSC,not soluble
17,MGHHHHHHSHMANSMANSMIRNKVMEQSFIEYSLGKDASSAVLWVYPARKPRGKAIIMCPGGGFNQIASDHEGRDFAAWFNNQGITYAVLNYRMPHGDVEVIREDIREAIRLIRRQSAEWGIHQLGVMGASIGGYIAATAATLYTGTDRPDFQVLLYPVISMTDRLTHWPSRERMLGETISEGLKETLSLELHVTADTPPTFIVLAEDDQAVSPLNSIVYYTALLKHGVSAGLHIYPEGGHSFGFRDSFIYKELWTDELQKWLLTF,soluble
18,MTHSLVCPETVSRVSSVLNRNTRQFGKKHLFDQDEETCWNSDQGPSQWVTLEFPQLIRVSQLQIQFQGGFSSRRGCLEGSQGTQALHKIVDFYPEDNNSLQTFPIPAAEVDRLKVTFEDATDFFGRVVIYHLRVLGEKV,soluble
19,SERTQSSNMETRLDAMKELAKLSADVTFATEFINMDGIIVLTRLVESGTKLLSHYSEMLAFTLTAFLELMDHGIVSWDMVSITFIKQIAGYVSQPMVDVSILQRSLAILESMVLNSQSLYQKIAEEITVGQLISHLQVSNQEIQTYAIALINALFLKAPEDKRQDMANAFAQKHLRSIILNHVIRGNRPIKTEMAHQLYVLQVLTFNLLEERMMTKMDPNDQAQRDIIFELRRIAFDAESDPSNAPGSGTEKRKAMYTKDYKMLGFTNHINPAMDFTQTPPGMLALDNMLYLAKVHQDTYIRIVLENSSREDKHECPFGRSAIELTKMLCEILQVGELPNEGRNDYHPMFFTHDRAFEELFGICIQLLNKTWKEMRATAEDFNKVMQVVREQITRALPSKPNSLDQFKSKLRSLSYSEILRLRQSERMSQDDFQSPPIVELREKIQPEILELIKQQRLNRLCEGSSFRKIGNRRRQERFWYCRLALNHKVLHYGDLDDNPQGEVTFESLQEKIPVADIKAIVTGKDCPHMKEKSALKQNKEVLELAFSILYDPDETLNFIAPNKYEYCIWIDGLSALLGKDMSSELTKSDLDTLLSMEMKLRLLDLENIQIPEAPPPIPKEPSSYDFVYHYG,not soluble
20,MGSDKIHHHHHHMTVTILHEANSIDTDYVKRARLISDKFLELIILPTEQCNFRCTYCYEDFSIGRMQPETIAGIKAILDKRCPNLSYLNLAWFGGEPLVAKNIVLDISEYALSLVSKYPHLHYSSNMTTNGYLLDLNTASALANVGVTKYQISLDGPREIHNQSRIRADGKSTFERIWTNLLAIRDSSLPIYINLRLHFTIDTVKLIDPLLEDIKREFLPDSRFSVYFKSIERLGGTNDASIKIYSESEKNTAIKTLEAKLFGEKLQSPQNATLPDDYVCYASRPNSLVIRANGSVGKCTVALSDERNNIGTLRTDGRLDLIPGRFAPWVRGIQTLDPDVLGCPLVSLPTSDEIATNLQTKALAV,not soluble
